Assay results reported in patent US20070122903A1, “AMNIOTIC FLUID DERIVED CELLS” (priority 2005, published 2007).

Test system: cell line AFCA007 Clone A (AF-I)
Test: Differentiation of cells into multiple endocrine lineages (collagen type I/matrigel transwell culture with growth factors)
Format: cell-based, human
Details: 14 days; for expression of HNF-3 beta: DMEM + 5% FBS
Method: Cells from the cell line AFCA007 Clone A (AF-I) at passage 8 were embedded in collagen type I (Becton Dickinson, CA) with 1% growth-factor reduced matrigel matrix (Becton Dickinson), and seeded into 6-well transwell insert at 5×10^5 cells per well. The bottom well was seeded with human aortic endothelial cells passage 6 (Cambrex. MD). Cells were cultured with DMEM medium supplemented with 5% FBS and growth factors, which includes Cyclopamine, bFGF, EGF, BMP4-7, Activin A, Exendin 4, FGF4, all-trans retinoic acid and γ-secretase inhibitors for 14 days. Cultures were fed every other day. […] Treatment of cells with BMPs at high concentration, 50 ng/ml, also up-regualted the GATA4 expression.

B1: BMP4: bone morphogenic protein, growth factor added to the differentiation medium (protein, UniProt P12644 293-408, looked up)
Bone morphogenetic protein 4: SPKHHSQRARKKNKNCRRHSLYVDFSDVGWNDWIVAPPGYQAFYCHGDCPFPLADHLNSTNHAIVQTLVNSVNSSIPKACCVPTELSAISMLYLDEYDKVVLKNYQEMVVEGCGCR
B1 was tested, and the “expression of HNF-3 beta” value was “up-regulated”.

B2: FGF4: growth factor added to the differentiation medium (protein, UniProt P08620 31-206, looked up)
Fibroblast growth factor 4: APTAPNGTLEAELERRWESLVALSLARLPVAAQPKEAAVQSGAGDYLLGIKRLRRLYCNVGIGFHLQALPDGRIGGAHADTRDSLLELSPVERGVVSIFGVASRFFVAMSSKGKLYGSPFFTDECTFKEILLPNNYNAYESYKYPGMFIALSKNGKTKKGNRVSPTMKVTHFLPRL
In the case of B2, the PDX-1 expression (50 ng/ml) is reported as “up-regulation”.

B3: Activin A: growth factor added to the differentiation medium (protein, UniProt P08476 311-426, looked up)
Inhibin beta A chain: GLECDGKVNICCKKQFFVSFKDIGWNDWIIAPSGYHANYCEGECPSHIAGTSGSSLSFHSTVINHYRMRGHSPFANLKSCCVPTKLRPMSMLYYDDGQNIIKKDIQNMIVEECGCS
modifications: Inhibin beta A chain
notes: growth factor added to the differentiation medium
With B3 the “expression of HNF-3 beta” value was “up-regulated”.
